Assay results as given in the DeepSol protein solubility set.

Experiment: soluble on expression in E. coli; label from the status in PepcDB or PDB records

| Sequence | soluble on expression in E. coli |
| --- | --- |
| MGSDKIHHHHHHMTERNSQDIGIQARFAEAEALGAHVYVLAAPLHNGSLPGALSVRRDHVACMLDGGADVQAVSPHLIYIPPSHFESARGWLERHGPASPCATILASPLPLAALAEHLKSFLRVCLPDGEPIVLAYWDPAILATLVGSAEDETLFVKGPVLSGEQRQAFLAPILRWTYWDRKGALRQIDWRQDRMPASAATLKPPLKLDQGQVDALTEASVPDGLLQHFSEHAPELLADVPERDRYGFVCRQIARARQHGIEGPGAWMDYCALAMRHGEAFDSHPDGVALLRTILPTASDRFSAS | not soluble |
| GMTKPKEPTALDLPMADPLPDETQKYFEICQEKLGMVPNVLKAYAFNVEKLNAFTAMYNDLMLGESQLSKLEREMIAVVVSSINKCFYCLVAHGAAVRQLSGDPQLGEMLVMNYRVAPLDARQRVMLDFAAKMTRASAEIEEADREVLRSHGFNDRDIWDIANVTGFFNMTNRVASATAMMPNAEYHGQFR | soluble |
| MKTLSPAVITLLWRQDAAEFYFSRLSHLPWAMLLHSGYADHPYSRFDIVVAEPICTLTTFGKETVVSESEKRTTTTDDPLQVLQQVLDRADIRPTHNEDLPFQGGALGLFGYDLGRRFESLPEIAEQDIVLPDMAVGIYDWALIVDHQRHTVSLLSHNDVNARRAWLESQQFSPQEDFTLTSDWQSNMTREQYGEKFRQVQEYLHSGDCYQVNLAQRFHATYSGDEWQAFLQLNQANRAPFSAFLRLEQGAILSLSPERFILCDNSEIQTRPIKGTLPRLPDPQEDSKQAVKLANSAKDRAENLMIVDLMRNDIGRVAVAGSVKVPELFVVEPFPAVHHLVSTITAQLPEQLHASDLLRAAFPGGSITGAPKVRAMEIIDELEPQRRNAWCGSIGYLSFCGNMDTSITIRTLTAINGQIFCSAGGGIVADSQEEAEYQETFDKVNRILKQLEK | soluble |
| MPSLLSSRIRNAEFAKKIVTDPAKLVPYFKNGDYVGWSGFTGVGYPKMIPNALARHVEENNLQGKLRFKLFVGASGGADTECKWAELNMIERRCPHQVGKPISKGINSGRIQFFDKHLSMFPQDLLYGYYTRNRESNTIDTAIIEATAITEDGGIVPGASVGASPELMQLAEKIIIEVNTAIPSFEGLHDIVEIPNPPHRTPININRVDDRIGKPYIKVDPKKVIGIVEADYGDITCANSPQDETSQAIAGHLVDFFHHEVSVGRLPKNLHPLQSGIGNIANAIIGGLAHSPFKDLEVWTEVLQDTFLPLFDSEKLRFATATSTRFSPQGFEKFYSNYDYYKERILLRPQVISNHPEIIRRLGCIAMNTPVEADIYAHANSTNVLGSRMLNGLGGSADFLRNAKLSIMHTPSVRPSKKDPTGITCIVPMATHVDQTEHDLDILVTEQGLADLRGLSPTERAREVIDKCAHPDYKPLLREYFDIAENYCLARGAGHEPHILANAFKMQLNLLEKGTMKIDHW | soluble |
| MSTPTPKVGFVSLGCPKALVDSERILTQLRMEGYEVVPTYEDADVVVVNTCGFIDSAKAESLEVIGEAIAENGKVIVTGCMGVEEHAIRDVHPSVLAVTGPQQYEQVVTAVHEVVPPKTEHNPLVDLVPPQGVKLTPRHYAYLKISEGCNHSCSFCIIPSMRGKLVSRPVGDVLSEAERLVKAGVKELLVISQDTSAYGVDLKYKTDFWNGQPVKTRMKELCEALSSMGVWVRLHYVYPYPNVDDVIPLMAAGKLLPYLDIPFQHASPKVLKAMKRPAFEDKTLARIKQWREICPELTIRSTFIVGFPGETEEDFQYLLDWLTEAQLDRVGCFQYSPVEGAPANELGLEPVPDEVKQDRWERFMAHQQAISAARLQLKVGKEIEVLIDEVDEQGAVGRSWADAPEIDGNVFVDSDELKPGDKVRVRITDADEYDLWAELVLEHHHHHH | soluble |
| GHMIARGKFRSLTLINWNGFFARTFDFDELVTTLSGGNGAGKSTTMAGFVTALIPDLTLLNFRNTTEAGSTSSSRDKGLYGKLKAGVCYAVLETVNSRAQRIITGVRLQQIAGRDKKVDIRPFSLQNVPMTDSVISLFTEQVANKARVLSLNDLKEKFEETAVTFKPYHSITDYHSFMFDLGILPKRLRSSSDRNKFYKLIEASLYGGISSVITKSLRDYLLPENSGVRQAFQDMEAALRENSGGSGGSISAESVANILRKTIQREQNRILQLNQGLQNIAFGQVKGVRLVVNIRDTHSILLNALSDQHEQHKDLFESQKLSFSEALAMLYKRINPHIELGQRMPQTIGEELLDYRNYLDLEVETLRGAYGWMRAESSALSTGEAIGTGMSILLMVVQSWEEESRRMRAKDILPCRLLFLDQAARLDAMSINTLFELCERLDMQLLIAAPENISPERGTTYKLVRKILANQEYVHVVGLKGFG | soluble |
| SLQKEANKTYHSSLKDGKLILLLDLDNTLLQATSFAKFNMELPLENFVDDNGEAELYKFYLPQYNFFYYLKFRPYVRQFLQILSLYYELAIYTNATREYADVVIAILDPDRTIFSDRIVARCSSTDRDENKYFSRIYPNVDPKYVIAFDDRKDVWIDIPQSHILKAEHYNFFELSKYDIIS | not soluble |
| GMLTENPVLQAIRQRRSIRRYTDEAVSDEAVRLILEAGIWAPSGLNNQPCRFLVIRADDPRCDILAAHTRYGHIVRGAKVIILVFLDREAMYNEVKDHQAAGAAVQNMLLAAHALQLGAVWLGEIINQAATLLPALALDPARLSFEAAIAAGHPAQNGSSSRRPLAELLLEEPFPQPE | soluble |
| MGSDKIHHHHHHLIPKIIHYCWFGNSELPDIVKDCISSWKKYCPEYEIKRWDESNYDVSKNAYTRAAYKNKKWAFLTDYVRLDVLYNEGGVYMDTDVKLIRSLDPLIDKGPFMSFEKRGRVNTGVGFACEAGNPIVKENKDYYENNLFVDENGNFEPEICVKITTKILIKHGLNYTENVVQKVDGLIVYSSDYFSPKKLGTEKITLTSNTYGIHLFASSWYKGSKIYKKMKYHLIPLKEFIKYKILSKKLYE | not soluble |
| MVRVAVIGGSGVYDFPAENKRELTVETPYGKVNLTIGHVAGEEVAFLARHGKGHSVPPHKVNYRANIWALHELGVERIVATSAVGSLNPNMRPGDFVILDQLIDFTVSRPRTFYDGEESPHDRKFVAHVDFTEPYCPEIRRALITAAKDLSLPYHPKGTYVCTEGPRFETAAEIRAYRILGGDVVGMTQCPEAALARELEMCYATVAIVTNYAAGISGKKLTHAEVVELMNKKTREITALITKAIPLIPKERNCPCKDALKGATG | soluble |
| MTGKSVREVPMTEEILAESIALRLRRDILRGKLVPGTSIKERDNAAEMGVSRTPMREAIRILANEGLVQLRPSRSPIVTQLSLNEVVSFIEVLSALEMLAVTLACERATKIDIAHVRGAERKLATQYDRIDQVERFELDMDFHIALTRASHNQALSDTHMSYLRRLWYARFQSARNRHTKDRVLQQHAALVDAIERRDPTMAQTELSSHLENLRINVHAYFERAEREQLQLKNSA | not soluble |
| MGSDKIHHHHHHMFGLIGHLTSLEHAQAVAQELGYPEYADQGLDFWCSAPPQIVDSIIVTSVTGQQIEGRYVESCFLPEMLASRRIKAATRKILNAMAHAQKHGINITALGGFSSIIFENFKLEQFSQVRNIKLEFERFTTGNTHTAYIICKQVEEASKQLGINLSNATVAVCGATGDIGSAVTRWLDARTDVQELLLIARDQERLKELQGELGRGKIMGLTEALPQADVVVWVASMPRGVEIDPTTLKQPCLLIDGGYPKNLATKIQYPGVHVLNGGIVEHSLDIDWKIMKIVNMDVPARQLFACFAESMLLEFEKLYTNFSWGRNQITVDKMEQIGRVSVKHGFRPLLV | not soluble |
| MSLDAPRFHIEEIRFSERDVALRLPFRFGAATVTACPQVYVRARIRFENGGTAEGCAAEMMVPKWFDKNPALSNEQNFEQLRCALRAARAAYVAEDGAQTAWTHFASNYAALQARAKAKGLQALVASYGPALIDRAVMDALCLRSGTSFATAMRANLCGIDIAGSGLADDLAGFDMPAFLASQSPRASIAARHTVGLADAIDDSDALPDAPADGLPTTLAEAVKRYGLTHFKPKLCGNTAQDISRLERIARVIDGHAQLVTLDGNEQYADADDFAVFLDRMLSTPVLWKLAQKTVFVEQPIRRDAALQRSVSAPGKRIPLLIDESDATLDAFVQARALGYTGVSSKSCKGFYKSVVNAARCAHWNAAEDKPRYFLSGEDLTMQAGIGVQQDLALVGWLGLSHVERNGHHYVNGLAAVPEAEQQALLKLHPGLYEPGDGAVRLAIRGGQLPLAPLAAAPGFATGIPGAGISWDAMRSVYEGHHHHHH | not soluble |
| MGSSHHHHHHDYDIPTTENLYFQGGGGGGMRAAVVYKTDGHVKRIEEALKRLEVEVELFNQPSEELENFDFIVSVGGDGTILRILQKLKRCPPIFGINTGRVGLLTHASPENFEVELKKAVEKFEVERFPRVSCSAMPDVLALNEIAVLSRKPAKMIDVALRVDGVEVDRIRCDGFIVATQIGSTGYAFSAGGPVVEPYLECFILIPIAPFRFGWKPYVVSMERKIEVIAEKAIVVADGQKSVDFDGEITIEKSEFPAVFFKNEKRFRNLFGKVRSIG | soluble |
| MIDISVVIPLLNEAESIPELFAWIRRVMNEHGYSYEVIFVDDGSTDGSWSVIERLQAEHPEVKGIKFRRNYGKSAGLQCGFARTQGQVVITMDADLQDSPDEIPELYRMVTEGGYDLVSGWKRKRYDPLFSKNLPSKLFNATARKLSGIKLHDFNCGLKAYRHEVVENIELYNDMHRYIPYLAKSAGFGRIGEKVVQHQARKYGSSKFGISRFFNGYLDLLTLWFISKFGRKPMH | not soluble |
| MGSDKIHHHHHHMTEKTTAELENLRGLIDGVDSQLLSLLRKRLDLVAQVGTVKHAAGLPIYAPAREAAMLGKRRAEAEAMGVSPQLIEDILRRLMRESYMSEKDVGFKQVNPELGHIVIIGGQGQLGRLFAQMFALSGYEVRLLDKDDWDHADELFDGAGLVLVTVPIATTCSLIRERLDHLPEHCILADLTSVKGAPLKAMLETHKGPVVGLHPMFGPDVGSLAKQVVVVCHGRAPEKYQWLMEQIGIWGARLVEADAGRHDKAMQLVQAMRHFSSFVYGLNLCREQADIDTLLEFSSPIYRLELAMVGRLFAQSGELYADIIFAQEESLTAISDFIDNYRDALELLKTGDRAGFIARFNEVSNWFGNYSQQFLTESRAMLQSVNDMRSV | not soluble |
| MSLHQILVVDDDAVSQQFLVMVLQRLGYANVVVASDGLDALIQLDAGDRRFDVIFCDLDMPRMDGIEFVRHLGERAFQGKLLISSGFDERVLESVAELARMYDLWLAGVLPKPINHQALQRLINQAPPASRHPTHAVAPPTEDELRAAIGKGEIRPFLQPQVLLADGRIRSAEVLARWQHPRLGLIGPQQFIQLAEHSSLITELTLQLLKQAAASMDRLPSETPMEMSLNLSVASLNEIALVSQFERILNDCGFPFSRLTVEVTETGLMANPTRALELLTRLRLKGARLAIDDFGTGFASMDRLSRIPFTELKIDKSFVIDAARNPTNLSIVRASAELGRQLGLVVVAEGVATESEWRLCQQLDVEIVQGSFISPPVDAESFRRWLLKHRGEGHHHHHH | soluble |
| RDVVGVGFGPANLALAIAIEEHNAECPPRERISAQFFEKQDRFGWHPGMLLDGATMQIAFPKDLVTFRNPRSAFTFFNYLFDQGRLVDFVNHQTFFPTRHEFHDYLQWAARRVDADVRYGTAVETVRGIRGDDGVIDRFEVRTADGSTVIARNVVMGAGLRERIPEWANPSARCFHNHQFLFRLGEMPAPVHHRFVVLGAGQSAAEIVQYLHGN | not soluble |
| SNAMAAKKPLFEVIASKIKDSINRDEYKTGMLMPNETALQEIYSSSRTTIRRAVDLLVEEGLVVRKNGVGLYVQPKLTAQNILEMTGVMKNDTNENLKKDIKDFYIRKAGKFYAEIFGMKENELVYSIKFVQKSEHGATLDRLILPLGLYPDLQAKDFQIINIIELVNSGKYKLFELEQELQLILAGNEQIKNMHLNENDPVFKLSSVFYAENDMPIAIQYHYEDAESTKYVVDFN | soluble |
